Measured values taken from patent US6861578B1, “Method for plant protection against insects or nematodes by transformation with a nucleic acid encoding equistatin” (Plant Research International B.V., priority 1997, dated 2005).

Assays:
[1] = system: Colorado potato beetle proteases; assay: Protease activity of Colorado potato beetle larval gut extract at pH 3, FITC-hemoglobin; type: biochemical, Leptinotarsa decemlineata; parameters: inhibition of total protease activity / increase of inhibition by addition of equistatin to E64 / increase of inhibition by addition of equistatin to pepstatin: concentration or dose not given beside the values
Protocol: (§1) Adult western flower thrips (Frankliniella occidentalis) and leafmirer flies (Liriomyza trifolii) adult were harvested from a culture maintained on chrysanthemum plants and complete thrips and flies were homogenized in extraction on buffer (200 mM β-alanine-HCl, pH 3.5) in a volume of 5 times the weight of the insects. The buffer pH was at the previously determined pH optimum of protease activity towards hemoglobin. Final instar Colorado potato beetle larvae maintained on potato plants as described in example 5 were checked for gut aspartic protease activity by preparing a total gut extract in pH 3 buffer which is optimal for Colorado potato beetle aspartic proteases (200 mM glycine, pH 3). Guts were homogenized in 100 μl buffer per gut. Third instar western corn rootworm larvae maintained on corn roots were used to remove the guts. Ten guts were homogenized in 100 μl water and spinned twice to remove insoluble material. Two types of buffers were used in the enzymatic assay. One with a pH presumably favoring cysteine proteases (50 mM MES, pH 6.5; 0.6 mg/ml L-cysteine) and one for detecting aspartic proteases (200 mM glycine, pH 3). Supernatants were stored at −20° C.
(§2) 2 μl gut extract was combined with 2 μl inhibitor (2 mM pepstatin in methanol, 4 mM E64 in water, 2 mg/ml recombinant equistatin in water. The concentration of the other proteinaceous inhibitors was not known exactly). Appropriate buffers were added to a final volume of 100 μl. After 15′ preincubation 20 μl substrate (5 mg/ml FITC-hemoglobin) was added and incubated for 30-45 min at 37 C.
(§3) Reaction was stopped by the addition of 100 μl 10% TCA. Tubes were centrifuged and 100 μl supernatant mixed with 100 μl 10 N NaOH was measured on a fluorimeter for the extent of hemoglobin hydrolysis. Measurements were done in duplicate on one (thrips, leafminer and western corn rootworm), or three (Colorado potato beetle) different gut extracts and varied by a maximum of +/−5%.

leafminer proteases = assay: Protease activity of adult leafminer fly extract, FITC-hemoglobin; type: biochemical, Liriomyza trifolii; conditions: leafminer pH 3.5; equistatin purified from sea anemone
Protocol: as §1, §2, §3

cathepsin D = cathepsin D (Homo sapiens, UniProt P07339); assay: Incubation of equistatin with cathepsin D, reverse-phase HPLC (substrate test); type: biochemical; conditions: incubated in different molar concentrations and times
Protocol: In panel A the equistatin was incubated with cathepsin D in a final molar concentration of 2:1, and in panel B the equistatin was fragmented using 1% (w/w) β-trypsin. Identities of peaks were based on the N-terminal sequences.
Equistatin was isolated from sea anemone A. equina by a procedure that was described previously utilizing its inhibitory activity toward cysteine proteinase, papain (Lenarcic et al. (1997) J. Biol. Chem. 272: 13899). Besides cysteine proteinases, equistatin was screened for the inhibition of two other classes of proteinases, aspartic proteinases (cathepsin D) and serine proteinase (trypsin). […] 500 μg equistatin was incubated with 5 μg of β-trypsin in 0.5 ml of 0.1 M Tris/HCl buffer pH 8.0, for 40 min at 37° C. Reaction was stopped by the addition of trifluoroacetic acid. The 9-trypsin digest of equistatin was separated by high performance liquid chromatography (Milton Roy Co.) using a reverse phase Vydac C18 column equilibrated with 5% acetonicril containing 0.1% (v/v) trifluoroacetic acid. Elution was performed using a linear gradient of 80% (v/v) acetonitrile containing 0.1% (v/v) trifluoroacetic acid. Absorbance was monitored at 215 nm. Two major peaks were obtained on the reverse-phase. HPLC (FIG. 9B). The molecular weights, estimated by the SDS PAGE under non-reducing conditions, were about 7,000 and 14,000 (FIG. 10). […]

[2] = system: tri-peptidil-peptidase and endoprotease activity of Colorado potato beetle larval gut extracts; assay: Tri-peptidil-peptidase and endoprotease activity of Colorado potato beetle gut extract, pGlu-Phe-Leu-pNA; type: biochemical, Leptinotarsa decemlineata
Text: Guts of final instar Colorado potato beetle larvae reared on methyl jasmonate induced plants were isolated and extracted essentially as described (Bolter and Jongsma, J. Insect Physiol. 41: 1071-1078). In these gut extracts the proteases that are sensitive to the protease inhibitors of potato are already complexed. The residual protease activity is composed of potato protease-inhibitor-insensitive proteases which were induced in response to the methyl jasmonate induced potato inhibitors. These proteases are the proteases that render the beetle larvae insensitive to protease inhibitor defense of the potato plant. Wle tested a broad range of different cysteisie protease inhibitors for activity specifically against these induced potato protease inhibitor-insensitive cysteine protesses. Nearly all of these inhibitors were purified at the Jozef Stefan Institute in Slovenia. Testing their potential against Colorado potato beetle was done using both general protein substrates (azocasein, table 2) as well as specific synthetic substrates (L-Arg-pNA, table 3; pGlu-Phe-Leu-pNA, table 4; Z-Phe-Arg-pNA, table 5; Z-Arg-Arg-pNA, table 6). In specific cases inhibitors were tested at two concentrations, eauimolar and in excess to the protease, in order to obtain an indication of the tightness of the complex. […] Importantly, this class of inhibitors was capable of inhibiting nearly all general cysteine protease activity. The equistatin peptide molecule and a functional derivative thereof were not very active against the aminopeptidase-like cysteine protease activity. […] The best combination of inhibitors for full toxicity against the Colorado potato beetle would therefore be a combination of equistatin or p41 invariant chain fragment and stefin-like inhibitors.

cathepsin D, sequence (P07339 65-412, species assumed): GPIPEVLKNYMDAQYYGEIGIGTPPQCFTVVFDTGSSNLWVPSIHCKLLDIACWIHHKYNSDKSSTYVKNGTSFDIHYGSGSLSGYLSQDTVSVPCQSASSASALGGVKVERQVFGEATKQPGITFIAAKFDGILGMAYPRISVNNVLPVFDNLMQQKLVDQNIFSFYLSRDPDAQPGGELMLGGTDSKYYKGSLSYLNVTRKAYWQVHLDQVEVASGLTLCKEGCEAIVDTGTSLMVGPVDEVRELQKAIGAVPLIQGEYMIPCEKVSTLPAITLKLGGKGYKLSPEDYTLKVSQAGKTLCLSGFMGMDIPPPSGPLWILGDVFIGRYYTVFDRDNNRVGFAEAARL

B1: equistatin: cysteine/aspartic protease inhibitor from sea anemone Actinia equina with three type I repeated thyroglobulin domains; purified or recombinant from E. coli (protein)
chain: SLTKCQQLQASANSGLIGTYVPQCKETGEFEEKQCWGSTGYCWCVDEDGKEILGTKIRGSPDCSRRKAALTLCQMMQAIIVNVPGWCGPPSCKADGSFDEVQCCASNGECYCVDKKGKELEGTRQQGRPTCERHLSECEEARIKAHSNSLRVEMFVPECLEDGSYNPVQCWPSTGYCWCVDEGGVKVPGSDVRFKRPTC
modifications: left off: large carriers; small tags and cut ends
notes: purified or recombinant from E. coli
increase of inhibition by addition of equistatin to E64 ([1]; Colorado potato beetle, pH3): 42% | increase of inhibition by addition of equistatin to pepstatin ([1]; Colorado potato beetle, pH3): 12% | inhibition of both aspartic and cysteine protease activity ([1]; Colorado potato beetle, pH3): more than 50% | inhibition of total protease activity ([1]; Colorado potato beetle, pH3): 62% | residual protease activity ([1]; colorado potato beetle pH 3, recombinant equistatin): 36% | residual protease activity (leafminer proteases): 24% | degradation of equistatin by cathepsin D (cathepsin D): No degradation products were observed | % of residual activity, equimolar ([2]; equimolar): 10% | % of residual activity, excess inhibitor ([2]; excess inhibitor): −5%
